test: soluble on expression in E. coli; label from the status in PepcDB or PDB records

Question: Which “soluble on expression in E. coli” value does the source give for “MSDTLLLTVLLRHDQSKNLDEIQARMKAMDWWERFPGEGVEIVSWTVAMGLGQIVTLRLPPALLPRVNVELERSAWGVFRTECYPTYDFVPVRETIRERVRTGGQ” here?
Answer: Its value is “not soluble”.

Question: Which “soluble on expression in E. coli” value does the source give for “MYHDRRRTGFRQYETYMKQKQSADWQLDELLEELEALETQLNSSNGGDQLLLGVSGIPASSSRENVKSISTLPPPPPALSYHQTPQQPQLLHHHNNHLGYQNGIHQITSINSAASSCSSPDGDSAFGDSSSTESSNNRCRNSAFSSNDSCRDSLNTPSPTQVSPRNGELNAEEAKAQKIRQALEKMKEAKVTKIFVKFFVEDGEALQLLIDERWTVADTLKQLAEKNHIALMEDHCIVEEYPELYIKRVYEDHEKVVENIQMWVQDSPNKLYFMRRPDKYAFISRPELYLLTPKTSDHMEIPSGDQWTIDVKQKFVSEYFHREPVVPPEMEGFLYLKSDGRKSWKKHYFVLRPSGLYYAPKSKKPTTKDLTCLMNLHSNQVYTGIGWEKKYKSPTPWCISIKLTALQMKRSQFIKYICAEDEMTFKKWLVALRIAKNGAELLENYERACQIRRETLGPASSMSAASSSTAISEVPHSLSHHQRTPSVASSIQLSSHMMNNPTHPLSVNVRNQSPASFSVNSCQQSHPSRTSAKLEIQYDEQPTGTIKRAPLDVLRRVSRASTSSPTIPQEESDSDEEFPAPPPVASVMRMPPPVTPPKPCTPLTSKKAPPPPPKRSDTTKLQSASPMAPAKNDLEAALARRREKMATMECMGHHHHHHENLYFMGHHHHHHENLYFQSH” here?
Answer: The value was “soluble”.

Question: For “MMKSIILIVLDGLGDRPGSDLQNRTPLQAAFRPNLNWLASHGINGIMHPISPGIRCGSDTSHMSLLGYDPKVYYPGRGPFEALGLGMDIRPGDLAFRANFATNRDGVIVDRRAGRENKGNEELADAISLDMGEYSFRVKSGVEHRAALVVSGPDLSDMIGDSDPHREGLPPEKIRPTDPSGDRTAEVMNAYLEEARRILSDHRVNKERVKNGRLPGNELLVRSAGKVPAIPSFTEKNRMKGACVVGSPWLKGLCRLLRMDVFDVPGATGTVGSNYRGKIEKAVDLTSSHDFVLVNIKATDVAGHDGNYPLKRDVIEDIDRAMEPLKSIGDHAVICVTGDHSTPCSFKDHSGDPVPIVFYTDGVMNDGVHLFDELSSASGSLRITSYNVMDILMQLAGRSDKFGSLEHHHHHH”, which “soluble on expression in E. coli” value is on record?
Answer: Its value is “soluble”.

Question: With “MEKQWWKESVVYQIYPRSFMDSNGDGIGDLRGIISKLDYLKELGIDVIWLSPVYESPNDDNGYDISDYCKIMNEFGTMEDWDELLHEMHERNMKLMMDLVVNHTSDEHNWFIESRKSKDNKYRDYYIWRPGKEGKEPNNWGAAFSGSAWQYDEMTDEYYLHLFSKKQPDLNWDNEKVRQDVYEMMKFWLEKGIDGFRMDVINFISKEEGLPTVETEEEGYVSGHKHFMNGPNIHKYLHEMNEEVLSHYDIMTVGEMPGVTTEEAKLYTGEERKELQMVFQFEHMDLDSGEGGKWDVKPCSLLTLKENLTKWQKALEHTGWNSLYWNNHDQPRVVSRFGNDGMYRIESAKMLATVLHMMKGTPYIYQGEEIGMTNVRFESIDEYRDIETLNMYKEKVMERGEDIEKVMQSIYIKGRDNARTPMQWDDQNHAGFTTGEPWITVNPNYKEINVKQAIQNKDSIFYYYKKLIELRKNNEIVVYGSYDLILENNPSIFAYVRTYGVEKLLVIANFTAEECIFELPEDISYSEVELLIHNYDVENGPIENITLRPYEAMVFKLK” as the sequence, how does the “soluble on expression in E. coli” value read?
Answer: Its value is “soluble”.

Question: Which “soluble on expression in E. coli” value does the source give for “MRDYKQLNGLALAYVGDAIYEIYIRDYLVSLGQTKPNVLHRMATHYVSAKAQASLMQAMLAGEMLTEEEEVMYKRGRNAKSHTFAKNADVTTYRVATGFESLMGYLHLTQQKERLEELINWCIKKVGETNEK” here?
Answer: The value was “not soluble”.

Question: With “MSLLDFSAHALPYASQRSPVHARRGMVATSQPQAAQVGLEILRRGGNAIDAAIATAAALTVVEPTGCGIGGDAFALVWTRGRLHGLDASGRAPGLLDRERVRAAGHERMPLYGWTPVTVPGCPAAWGELSRRFGKLPFEQLLRPAIELARDGFPVSPVIARLWQSGLDKFRAALPQRPELRAWFDEFLIDGRAPRAGEVFRQPGQADTLDELARSQCESFYRGELARAIVGHAECSGGYLRAEDLAGYQAKWVEPISLNYRGYDVWEIPPSGQGLIALMTLNILKGFEFGERDCARTWHRQLEAMKLAYVDGLHYISQPQSMRVSVEELLHEDYAASRRALIGERALDPSPGQPRPGGTVYLACGDEEGNLVSFIQSNYHGFGSGVVVPGTGIALQNRGAEFSLDPDHVNCLEPGKQTFHTIIPGFLSKDGVPLGPFGVMGAYMQPQGHVQMVMNLVDFGLNPQAALDAPRWQWLGGLRVGIEHAAPRALAAELAQRGHQVEIAYDSTSYGRGQIVLRDPASGVLCGGTEPRTDSQIAVWEGHHHHHH” as the sequence, how does the “soluble on expression in E. coli” value read?
Answer: Its value is “not soluble”.

Question: With “GPGSMFGANAPSTGIGAPAAGFGKPPATFGTSALSGANTTATAGRGFGAATGASATPGFGIAFAAPSTSTAAAGGASGFGSSAASGTTGFGGAAGFGSSAASGTTGFGGAAGFGSSAASGTTGFGAGGGFGAKPGSGFGVSATSGFGAPATGTTGFGAGATAPAAIGGWGAQQPNPAMQPQAPQQPQPTVTLQDFARQSALASYLVKLDESYNALHPNCRFRAFVYNSCGAGQVMDAIQKERYTAHLNGGGCSEEAYMQALHQNPDPGRLYPSPIHFSQELLRRTEKQREAVKVLQKKVTELLQDIDTVAAMDAANVRRQREVEQEEVMLQHRWYSLLCKMELLRRHGSSCGEEGLLNSRVEQLRKLLRAPGRFSQLLSELRPFLTEEASRVAMITQQSANKTEARQQQQQCRFVGSAPAAWRNAGSQPLLRTEVDPYIMKDWVQFAKQMQDGIETLNELLKTDLKEMQAIRSRVEAS” as the sequence, how does the “soluble on expression in E. coli” value read?
Answer: Its value is “not soluble”.

Question: Which “soluble on expression in E. coli” value does the source give for “MGSDKIHHHHHHMFTLYERKNRQKSNVNIFVMNYVTNLTKENLAGERIGVFFGTFAPLHVGHQAEIYKAAALNDGVLVVTSGYTGDRGEQIGLPLRKRFRYLRQAFADEWQIKVDYLNEDGIPKMPDGWDVWLDKLLGIIKRNIVNKNAKITFYTGEPDYKKEIEKRLGDNPQFRVSLMDRTILNISATKIRKEPLKYWDYINRVFRRHFVQKVVVMGSSNSGKSTLIRRLARSANSPFSDDFAAIYQEESNVADSEMDIKDYSNIIQGQYQANSLEINSPANNGLAIFNGDAISLQAYSNLLLNQDERLQLKHLYNTIISAEEFDLILVIPPFSDPRRKVIRFTGAAIDPVAYYQELIRLIDFYGFSDKMVVLNAKNQTDDPAGYYARYLQALDAIEKYTSFDIEHHR” here?
Answer: Its value is “not soluble”.

Question: For “MGSDKIHHHHHHMYEFNDTIRGTPKVTFNLKTTIGGKVLEDELNNGFGTFRTLTVSGRDVVDLEHQTTSVLGRNGEYFHNATVEVRKLEIKAKISGKDNKSMRLQYEKLNKLIVSHNQVFLSFSDEPDRNYLGIFKSKDVPEEVSNEQIIGLTFICYNPFKMSDVKTKKGTSIQNGGLFQTKPIITLNLSSPTKEIKLLHVESQKYIRLTGTYTTDEIKIDMATGKITQNGRNILGDLDMINSRYFELLPGNNTLQCANAAITAEFREVYL”, which “soluble on expression in E. coli” value is on record?
Answer: The value was “not soluble”.

Question: For “MGCSHSKNKNSKSKSAILKKEHPLERSIHHNRVAHFDETQPTSQSTSVESEELNVKHYSKTLLNDTVEPTHQKTSAHVPEKSIKKQEVKQEVKKHETTTVVHTNVHVPKPTHKLPQASEIPIERMGSDPHTAIAPTYQQKQFATSTYYPMPTIGEKQKSPEKAKPARKVDNTDEKKRKKDQNEKPVINGPNVRHQLTPEDLEYIKRSVQQRNERRAFMMAHRNETDDTLYELEVRMPEKDYTNRMEVGQNYRVC”, which “soluble on expression in E. coli” value is on record?
Answer: Its value is “not soluble”.

Question: With “MLKKTLAALALGSALFTAGQAMAADYKIDKEGQHAFIEFRIKHLGYSWLYGRFNDFDGSFTFDEKNPSADKVKVTINTNSVDTNHAERDKHLRSGDFLNVSKNPTATFESTEVKANGDSADITGNLTLNGVTKPVTIKAKLIGQGDDPWGGYRAGFEGSATLKLKDFGIKMDLGPASQEVELLLSVEGIRQ” as the sequence, how does the “soluble on expression in E. coli” value read?
Answer: Its value is “not soluble”.

Question: With “MAHHHHHHMVQLTINNARGVTLCRVSLPANATVQQLLLQLTVAKPELRQAQAIRNDVRHVTHRLTPASTTTTTTTSVVSSNAQTLLQAGLVGQGATAETLVVLMAADAPAAASSAAAAAPSPTKAVAAQILDLFGCASASPSAGVRSQASVVPSTMDERQLELQRRIYAQIQQQQIDENLANALEYTPEAFAKVTMLYVPCTINQVLVKAFVDSGAQNSIMNKRTAERCGLMRLVDVRMRGVAVGVGRQEICGRIHMTPVNLAGMYIPFAFYVIEDQAMDLIIGLDQLKRHQMMIDLKHNCLTIDNINVPFLPENDLPALAALGDDENAMHAPRHQDPATTATTASNPAAPVLSEGERQARIEGFMTVSGITDPTQAAELLEAADWNPNVAAALLFDT” as the sequence, how does the “soluble on expression in E. coli” value read?
Answer: Its value is “soluble”.

Question: For “MGSDKIHHHHHHMVMNRSSLDGFFDPSYLENILGNFTQATGLRIEAVNYRGETFSIPGSLDRSPFCQCIRNNPQGNKRCIDSYKRATSEAVKWDEPYFFRCHAGLVIWAVPILSKDITLGSIICGQVLLWKPDRFFIQELQDISKGLKIDPEELNQAVPNLSIISADQAQAAANLLFVVVSHILKNNLRALEEEKAYKVLQQQLHDQILKRKKGPRRTDISYESILKDERRFLQYIRLGDKSRAFATLENLIIKIYTKSTGEPQLAKDRIVELAALTSRAAVEGGSDAEQAVTILSSFYKKLENMERVEEIIYFIKQIVDEFLENIFILADKKHLSLVKDARSFILHNHAQPLTIADAAQHLFISPSHLSRLFRQQLDCTFNDYLTRVRVEKAVELLKKPEFSVKDVALAVGFQNQSHFAKVFRKYIGVTPLVYRNSLF”, which “soluble on expression in E. coli” value is on record?
Answer: Its value is “not soluble”.

Question: Which “soluble on expression in E. coli” value does the source give for “MGSDKIHHHHHHCQTQVETAPTSDVIKLQQTALASQLGYDIVESLTVEVGPRLAGSPKDIIAVNWAINKLTSLGFDRVYKEPVQVPIWERGEAKAKITFPVEQPLVITALGGSIATPAGGIQAKIARFDSLEALQQAKPEDVQGKIAFIDQKTERHITGEGYGKSVGGRSKGAVVAAQKGAVAIVIRSIGTDHDRMAHTGVMRYQDDVPKIPAAAMSNPDADLVDALLKRNPDALLELQMSPKNAGFNTSYNVIAEVTGSSKPNEIVLIGAHLDSWDEGTGAIDDGAGVAIVTAAAKHIQDLLVKPARTVRVVLYAAEEIGLVGGKAYAETHKAELPLHYIAAESDFGAGRIYQIDTKVNESAFAEVQHALSPMSFNGVALGNNQASGGPDVSMLPALGVPVASLRQDGHDYFDYHHTPNDTLDKIDPAALAQNVAAYAQFAYIMANSTPTLTPLVIQSEK” here?
Answer: Its value is “not soluble”.

Question: Which “soluble on expression in E. coli” value does the source give for “MIVVSGSQSQNLAFKVAKLLNTKLTRVEYKRFPDNEIYVRIVDEINDDEAVIINTQKNQNDAIVETILLCDALRDEGVKKITLVAPYLAYARQDKKFNPGEAISIRALAKIYSNIVDKLITINPHETHIKDFFTIPFIYGDAVPKLAEYVKDKLNDPIVLAPDKGALEFAKTASKILNAEYDYLEKTRLSPTEIQIAPKTLDAKDRDVFIVDDIISTGGTMATAVKLLKEQGAKKIIAACVHPVLIGDALNKLYSAGVEEVVGTDTYLSEVSKVSVAEVIVDLL” here?
Answer: Its value is “soluble”.

Question: For “MSLSIKLVAIDIDGTLLNSQHKITPRVKEALQKANEQGVRIVLCTGRPLPGVKEQLDELALYGENDFVITYNGSLVQATKDNTIISRYTLSYEDFLEIEMYSRKVGAHLHTIDDSAIYTANRNIGKYTIHEASLVNMPLKYRTVDEMTPEMNIIKMMMIDEPEVLDPAIAKLPLHFTEKYTTVKSTPFYYEIMNKNASKGNALAKLADHLGLNKDEVMAIGDNENDLSMIDYAGIGVAMGNATENVKTIADVHTTSNDEDGVAQIIEKMVLIEGHHHHHH”, which “soluble on expression in E. coli” value is on record?
Answer: The value was “soluble”.

Question: With “MDYLSFIAVAAHEFVHTWNVKQYRPKGIVPYDYQQENYSNLLWLVEGSTSYLQYQLLLRGNLMTTDEFFTALAKRITAHAHKPGKESQSVAQASFDAWISEGGDYGNNHSVNILEHHHHHH” as the sequence, how does the “soluble on expression in E. coli” value read?
Answer: Its value is “soluble”.

Source: the DeepSol protein solubility set
